Reference: patent US20110135636A1 (SYMPHOGEN A S, published 2011)
Blank lines part the entries; values can stand above or below the binder they belong to.

Columns and labels:
[1] = biological target: T1, full length human EGFR expressed on the cell surface (human, UniProt P00533 25-1210); test: cell ELISA, Fab titrated on paraformaldehyde-fixed A431-NS cells
T1 construct: whole, on cells; also called EGFR on A431-NS cells; EGFR on HN5 cells
Description: (§1) Cell ELISA: The relative binding affinities defined as the molar concentration giving the half maximal OD (ED50) were determined by antibody titrations on A431-NS cells. Briefly, 10,000 A431-NS cells were grown in 96 well ELISA plates containing DMEM with added 0.5% FCS and 1% P/S at 37° C., 5% CO₂ overnight. […] Then 50 μl of a secondary Goat-anti-Human (Fab specific) HRP conjugate diluted 1:5000 in DMEM containing 1% BSA was added and incubated on ice for 30 min. Finally wells were washed four times with PBS and plates developed by adding 50 μl/well TMB Plus substrate and read at 620 nm every 5-15-30 min. After incubation with substrate the reaction was stopped by addition of 1 M H₂SO₄ and absorbance read at 450 nm. The functional affinity expressed as ED50 values were calculated by subtraction of the average background binding with secondary reagent only, followed by normalization of the binding curves by plotting % maximal binding relative to each antibody tested.

[2] = biological target: T1, full length human EGFR expressed on the …; test: cell ELISA, Fab titrated on paraformaldehyde-fixed A431-NS cells; given as ED50
Description: as §1

[3] = biological target: T2, EGFR-Fc (recombinant EGFR ECD-Fc chimera, R&D Systems 344-ER) (human, UniProt P00533 25-645); test: SPR (BIAcore 2000); Fab over immobilized EGFR ECD-Fc
T2 construct: extracellular domain; Bought; also called immobilized Human EGFR ECD; immobilized receptor; not shown: human IgG Fc

[4] = biological target: T1, full length human EGFR expressed on the …; test: cell ELISA, Fab on A431-NS cells
Description: as §1

[5] = biological target: T2, EGFR-Fc (recombinant EGFR ECD-Fc …); test: SPR (BIAcore 2000); Fab over immobilized EGFR ECD-Fc; Scatchard analysis
[6] = biological target: T1, full length human EGFR expressed on the …; test: cell ELISA, Fab titrated on paraformaldehyde-fixed A431-NS cells, against SPR
Description: as §1

[7] = biological target: T3, recombinant human EGFR extracellular domain with 6xHis (human, UniProt P00533 25-645); test: SPR (Biacore 3000) on captured 6xHis EGFR ECD
T3 construct: In-house produced; also called 6xHis EGFR ECD; soluble human EGFR ECD; not shown: 6xHis tag

[8] = biological target: T4, Cynomolgus EGFR extracellular domain (Cynomolgus monkey (Macaca fascicularis), UniProt P55245 25-645 (rhesus entry)); test: ELISA on cynomolgus EGFR ECD (Example 10)
T4 construct: Cloned without signal peptide; also called Cynomolgus rEGFR ECD; Cynomolgus EGFR ECD
Description: To verify that tested Anti-EGFR antibodies bound equally well to both Human and Cynomolgus EGFR ECD and accordingly warranting toxicology studies in Cynomolgus monkeys, serial four fold dilutions of antibodies beginning from 1 μg/ml were tested by ELISA for binding to recombinant Human and Cynomolgus EGFR ECD proteins. […] ELISA wells were coated with 50 μl/well of full length EGFR at a concentration of 1 μg/ml in PBS overnight at 4° C. The next morning wells were washed twice with PBS-T and blocked for one hour with 100 μl PBS-T-1% BSA at room temperature, followed by wash twice in PBS-T. Next 50 μl of serially diluted Anti-EGFR antibodies and control antibodies were added to wells and incubated for one hour at room temperature. After antibody incubation wells were washed five times with PBS-T, followed by incubation with 50 μl/well Streptavidin-HRP secondary reagent diluted 1:3000 in blocking buffer and incubation at room temperature for 30 min. Finally wells were washed five times with PBS-T and plates were developed by adding 50 μL/well TMB substrate and incubated at room temperature. After incubation the reaction was stopped by addition of 1 M H₂SO₄; 100 μl/well and plates were read at OD 450 nm.

[9] = biological target: T5, wild type full length EGFR purified from A431 cells (human, UniProt P00533 25-1210); test: indirect ELISA, Fab on coated purified full length EGFR
T5 construct: mature; Bought; coated on ELISA wells; also called full length EGFR receptor antigen; Sigma E3641

[10] = biological target: T2, EGFR-Fc (recombinant EGFR ECD-Fc …); test: SPR (BIAcore 2000); Fab over immobilized EGFR ECD-Fc against IgG with soluble EGFR ECD

B1: Fab 1024 (Fab, V domains shown, not shown: small tags and cut ends)
VH: QVQLQQPGAELVEPGGSVKLSCKASGYTFTSHWMHWVKQRPGQGLEWIGEINPSSGRNNYNEKFKSKATLTVDKSSSTAYMQFSSLTSEDSAVYYCVRYYGYDEAMDYWGQGTSVTVS
VL: DIVMTQAAFSNPVTLGTSASISCRSSKSLLHSNGITYLYWYLQKPGQSPQLLIYQMSNLASGVPDRFSSSGSGTDFTLRISRVEAEDVGVYYCAQNLELPYTFGGGTKLEIKR
Log ED50 [1]: 0.3
EC50 [2]: 2 nM
Kd [3]: 25.6 nM
koff [3]: 0.0049 s⁻¹
kon [3]: 190000 M⁻¹ s⁻¹
t1/2 [3]: 2.3 min
EC50 (read off the curve) [4]: ~2 nM

B3: antibody 1229 (antibody, human IgG1, kappa, V domains shown)
VH: QVQLKESGPGLVAPSQSLSITCSVSGFSLTIYGVHWVRQPPGKGLEWLGVMWAGGNTDYNSALMSRLNISKDNSKSQVFLKVNSLQTDDTAMYYCTRDPDGYYVGWFFDVWGAGTTVTVSS
VL: DIVMTQSHKFMSTSVGDRVSITCKASQDVTNAVAWYQQKPGQSPKLLIYWASIRHTGVPDRFTGSRSGTDYTLTINSVQAEDLALYYCQQHYNTPLTFGAGTKLEIKR
notes: Chimeric IgG1 kappa
binding result [7]: no binding (tested: 40 ug/ml)
binding result [8]: no binding

Further lines, results first:

Log ED50 [1]: 1
EC50 [2]: 9.9 nM
t1/2 [3]: 0.2 min
Kd [5]: 150 nM
fold lower monovalent functional affinity value on cells than tested with BIAcore [6]: ≥ 15 fold
B2: Fab 992 (Fab, V domains shown, not shown: small tags and cut ends)
VH: EVQLQQPGSELVRPGASVKLSCKASGYTFTSYWMHWVKQRPGQGLEWIGNIYPGSRSTNYDEKFKSKATLTVDTSSSTAYMQLSSLTSEDSAVYYCTRNGDYYVSSGDAMDYWGQGTSVTVS
VL: DIQMTQTTSSLSASLGDRVTISCRTSQDIGNYLNWYQQKPDGTVKLLIYYTSRLHSGVPSRFSGSGSGTDFSLTINNVEQEDVATYFCQHYNTVPPTFGGGTKLEIKR

Log ED50 [1]: 0.27
EC50 (read off the curve) [9]: ~4 nM
EC50 [2]: 1.8 nM
fold higher affinity against immobilized antigen than against soluble receptor [10]: 10 fold
Kd [3]: 2.3 nM
koff [3]: 0.0002 s⁻¹
kon [3]: 87000 M⁻¹ s⁻¹
t1/2 [3]: 57.5 min
EC50 (read off the curve) [4]: ~1 nM
B4: Fab 1030 (Fab, V domains shown, not shown: small tags and cut ends)
VH: EVQLVESGGGLVKPGGSLKLSCAASGFTFSSYALSWVRQTPERRLEWVASISGVGSTYFPDSVKGRFTMSRDNARNILYLQMSSLRSEDTAMYYCARGSDGYFYAMDYWGQGTSVTVS
VL: DIVLTQSPASLAVSLGQRATISCRASKSVSTSGYSFMHWYQLKPGQPPKLLIYLASNLESGVPARFSGSGSGTDFTLNIHPVEEEDAATYYCQHSREFPLTFGGGTKLEIKR
